Values of other authors, collected in patent publication US12090208B2, “Peptide drug improvement using vitamin B12 and Haptocorrin binding substrate conjugates” (SYRACUSE UNIVERSITY, priority 2017, dated 2024).

Settings: in vivo

B1: haptocorrin: serum B12 binding and transport protein (protein, UniProt P20061 24-433, looked up)
Transcobalamin-1: EICEVSEENYIRLKPLLNTMIQSNYNRGTSAVNVVLSLKLVGIQIQTLMQKMIQQIKYNVKSRLSDVSSGELALIILALGVCRNAEENLIYDYHLIDKLENKFQAEIENMEAHNGTPLTNYYQLSLDVLALCLFNGNYSTAEVVNHFTPENKNYYFGSQFSVDTGAMAVLALTCVKKSLINGQIKADEGSLKNISIYTKSLVEKILSEKKENGLIGNTFSTGEAMQALFVSSDYYNENDWNCQQTLNTVLTEISQGAFSNPNAAAQVLPALMGKTFLDINKDSSCVSASGNFNISADEPITVTPPDSQSYISVNYSVRINETYFTNVTVLNGSVFLSVMEKAQKMNDTIFGFTMEERSWGPYITCIQGLCANNNDRTYWELLSGGEPLSQGAGSYVVRNGENLEVRWSKY
In the case of B1, the half-life in blood is listed as “approximately 10 hours”.
